{
  "source": "the nanobody polyreactivity screen of Harvey et al. (2022)",
  "data": [
    {"assay": "yeast display, Sf9 membrane polyspecificity reagent, FACS + sequencing; frameworks hold sequencing errors", "outline": "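After 36–48 hours of galactose induction, yeast (Saccharomyces cerevisiae BJ5465) displaying a synthetic nanobody library were stained at 4 °C for 1 hour with 10% biotinylated, detergent-solubilized Sf9 membrane reagent. Streptavidin microbeads enriched the stained cells before FACS sorting into low and high (top ~1%) gates on anti-HA and streptavidin fluorescence. Each clone's polyreactivity label reflects its gate of origin.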", "values": [
      {"sequence": "QVQLEESGGGLVQAGGSLRLSCAASGSTFLLYAMGRYRQAPGKEMEMVATISWGGDGTYYADSVKGRFTISRDNAKNTVYLQMNSLIPEDTAVYYCAAESYLVQFYFLYYYWGQGTQVTVSS", "polyreactivity (PSR sort gate)": "low polyreactivity"},
      {"sequence": "QVQLEESGGGLVQAGGSLRLSCAASGSTFQLYAMGWYRPAPGKERELVAGISRDGSTYYADSVKGRFTISRDNAKNTVFLQMNSLKPEDTAVYYCAAKYYGNKRDLYYWGQGTQVTVSS", "polyreactivity (PSR sort gate)": "low polyreactivity"},
      {"sequence": "QVQLEESGGGLVQAGGSLRLSCAASGSTFSTYSMAWYRHAPGKERELVARITRSDTGTYYADSVKGRFTISRDYAKNTVYLQLNSLKPEDTAVYDCAADGWYDDSGWDYGYDYWGQGTQVTVSS", "polyreactivity (PSR sort gate)": "low polyreactivity"},
      {"sequence": "QVQLEESGGGLVQAGGSLRLSCAASGSTFTEYVMGWYRHATGKERELVAAIRSNGGSTYYADSVKGRFTISRDNAKNTVYLQMHSLNPEDTAVYYCNRVYSRRTYNSPLYDDWGQGTQVTVSS", "polyreactivity (PSR sort gate)": "high polyreactivity"},
      {"sequence": "QVQLEESGGGLVQAGGSLRLSCAASGSTFTGYAMGWYRQAPGKERELVAAIPISGGRTFYADSVKGRFTISRDNAKNTVYLQMNSLKPEDTAFYYCAAYLRGSKYSFDYWGQGTQVTVSS", "polyreactivity (PSR sort gate)": "high polyreactivity"},
      {"sequence": "QVQLEESGGGLVQAGGSLRLSCAASGSTFVPNDMGGYRQAPGKERELVAAITDSGGSTYYADSVKGRFTISRDNAKNTVYLQMNSLKPEDTAVYYCAAEKAEWYYHTVWHFARGEYWGQGTQVTVSS", "polyreactivity (PSR sort gate)": "low polyreactivity"},
      {"sequence": "QVQLEESGGGLVQAGGSLRLSCAASGSTFWLNAMGWYRQAPGKESELVASITWSGDSTYYADSVKGRFTISRDNAKNTVYLQMNSLKPEDTAVYYCNTDSILGQIWGATDDYWGQGTQVTVSS", "polyreactivity (PSR sort gate)": "low polyreactivity"},
      {"sequence": "QVQLEESGGGLVQAGGSLRLSCAASGSTFWRYAMGWYRQAPGKERELVAAISWNGGSTYYADSVKGRFTISRDNAKNTDYLQMNSLKPEDTSVFYCNRRYPFYSRYNNDYWGQGTQVTVSS", "polyreactivity (PSR sort gate)": "high polyreactivity"},
      {"sequence": "QVQLEESGGGLVQAGGSLRLSCAASGSTFYANTMGSYRQAPGKERELVATISIDGSTNYADSVKGRFTISRDNAKNTVYLQMNTLKPEDTAVYYCNADVYSVLYGYWGQGTQVTVSS", "polyreactivity (PSR sort gate)": "low polyreactivity"},
      {"sequence": "QVQLEESGGGLVQAGGSLRLSCAASGSTFYGYAMGWNRQAPGKERELVAAITRSGGSTYYADSVKGRFTISRDNAKNTVYLQMNSLKPEDTEVYYCNKYGYKGGVGYDYWGQGTQVTVSS", "polyreactivity (PSR sort gate)": "high polyreactivity"},
      {"sequence": "QVQLEESGGGLVQAGGSLRLSCAASGSTFYPNAMGWYRQAPGKERELVAAISQRGGRKYYADSVKGRFTISRDNAKNTVYLQMNSLKPEDTAVYYCAATYQGYNSWYSFGYWGQGTQVTVSS", "polyreactivity (PSR sort gate)": "high polyreactivity"},
      {"sequence": "QVQLEESGGGLVQAGGSLRLSCAASGSTFYRYAMGCYRQAPGKERELVAAMSRGGGRTNYADSVKGRFTISRDNAKNTVYLQMNSLKPEDTAVYYGAAYTYSFRANHDYWGQGTQVTVSS", "polyreactivity (PSR sort gate)": "high polyreactivity"},
      {"sequence": "QVQLEESGGGLVQAGGSLRLSCAASGSTFYRYTMGWYRQAPGTERELVAAISRSGGRTYYADSVKGRFTISRDNAKNTVYLQMNSLKPEDTAVYYCAAARRYGRYFGYPMEYWGQGTQVTVSS", "polyreactivity (PSR sort gate)": "high polyreactivity"},
      {"sequence": "QVQLEESGGGLVQAGGSLRLSCAASGSTFYSNAIGWYRQAPGKEREFVAAISLRGGSTYYADSVKGRFTISRDNAKNTVYLQMNSLKPEDTAVYYCAVDYYRRNGLKVYYRYDYWGQGTQVTVSS", "polyreactivity (PSR sort gate)": "high polyreactivity"},
      {"sequence": "QVQLEESGGGLVQAGGSLRLSCAASGSTIPRNAMGWYRQAPGKERELVAAITSGGSTNYADSVKGRFTISRDNAKNTVYLQMNSLKPEDTSVYYCAADEQVNTQYVVWGDYWGQGTQVTVSS", "polyreactivity (PSR sort gate)": "low polyreactivity"},
      {"sequence": "QVQLEESGGGLVQAGGSLRLSCAASGSTLIDNVMVWYRQAPGKERELVASITSSDGTTYADSVKGRITISRDNAKNTVYLQMNSLIPEDTAVYYCAARPWYGTYNYWGQGTQVTVSS", "polyreactivity (PSR sort gate)": "low polyreactivity"},
      {"sequence": "QVQLEESGGGLVQAGGSLRLSCAASGSTLKLNAMGWYRQAPGKERELVASINFSGGSTYYAYSVKGRFTISRDNAKNTVYLQMNSLKPEDTAVYYCAAEASSYSRSVRWRYVYYYWGQGTQVTVSS", "polyreactivity (PSR sort gate)": "high polyreactivity"},
      {"sequence": "QVQLEESGGGLVQAGGSLRLSCAASGTFVTYMGWYRQAPGKERELVAAIRNGGSTNYADSVKGRFTISRDNAKNTVYLQMNSLKPEDTAVYYCAARVTYSRGYRGGSRTKYDYWGQGTQVTVSS", "polyreactivity (PSR sort gate)": "low polyreactivity"},
      {"sequence": "QVQLEESGGGLVQAGGSLRLSCAASGYIFDYNAMGWYRQAPGKERELVAVISRGGRTYYADSVKGRFTISRDNAKNTVYLQMNILKPEDTAVYYCAADRQSYPYDYWGQGTQVTVSS", "polyreactivity (PSR sort gate)": "high polyreactivity"},
      {"sequence": "QVQLEESGGGLVQAGGSLRLSCAASGYTFATYAMGWSRQAPGKERELVAAISQGGDRTNYADSVKGRFTISRDNAKITVYLQMNSLKPEDTSVYYCAVRYASRQSRFYYWGQGTQVTVSS", "polyreactivity (PSR sort gate)": "high polyreactivity"},
      {"sequence": "QVQLEESGGGLVQAGGSLRLSCAASRRIFGSNAMGWYRQAPAKERELVAVITSGGRTYYADSVKGRFTISRDNAKNTVYLQMNSLKPGDTSVYYCNAYYKAAYDYWGQGTQVTVSS", "polyreactivity (PSR sort gate)": "high polyreactivity"},
      {"sequence": "QVQLEESGGGLVQAGGSLRLSCAGSGRIFAYYPMGWYRQAPGKERELVAAISRSGVSTYYADSVKGRFTISRDNAKNTVYLQMNSLKPEDTAVYYCAATYWRRGGYRMEYWGQGTQVTVSS", "polyreactivity (PSR sort gate)": "low polyreactivity"},
      {"sequence": "QVQLEESGGGLVQAGGSLRLSCAPSGYNYRKNVIGWYRQAPGKERELVAAISARGGSTYYADSVKGRFTISRDNAKNTVYLQMYSLKAEVTAVYFCNTDGYLYPYDSWGLGTQVTVSS", "polyreactivity (PSR sort gate)": "high polyreactivity"},
      {"sequence": "QVQLEESGGGLVQAGGSLRLSCASSGSTFPYNAMGWYRQAPGKERELVAANTSGASTNYADSVKGRFTISRENAKNTVYLQMNRLKPEDTAVYYCAAQSFGKRIWSPRYQLNYWGQGTQVTVSS", "polyreactivity (PSR sort gate)": "low polyreactivity"},
      {"sequence": "QVQLEESGGGLVQAGGSLRLSCDASGRIFGGYAMGWYRQAPGKERELVAAISASGGRTYYADSVKGRFTISRDNAKNTVYLQMNSLKPEDTAVYYCAASFRRTSLRWHGEYWGQGTQVTVSS", "polyreactivity (PSR sort gate)": "high polyreactivity"},
      {"sequence": "QVQLEESGGGLVQAGGSLRLSCPASGITFYRYVMGWNRQAPGKERELDAAINWSTGTTNYADSVKGRFTISRDNAKNTVYLQMNSLKPEDTAVYYCNARYRLRFIYSLRYDYWGQGTQVTVSS", "polyreactivity (PSR sort gate)": "high polyreactivity"},
      {"sequence": "QVQLEESGGGLVQAGGSLRLSCPASGSTFIVNVMGWYRQAPGKERELVAAINSGGSTDYADSVKGRFTISRDNAKNTVYLQMNSLKPEDTAVYYCNAYHIVIYDYWGQGTQVTVSS", "polyreactivity (PSR sort gate)": "low polyreactivity"},
      {"sequence": "QVQLEESGGGLVQAGGSLRLSCSAYGFTFSRYDMGWYRQAPGKERELVAAISWSGGSTYYADSVKGRFTISRDNAKNSVYLQMNSLKPEDTAVYYCAKPGWSVTGESWGQGTQVTVSA", "polyreactivity (PSR sort gate)": "high polyreactivity"},
      {"sequence": "QVQLEESGGGLVQAGGSLRLSFAASGFTFVRNTMGWDRQAPGKERELVAAISRSGGSTYYADSVKGRFTISRDKAKNTVYLQMNSLKPEDTAVYYCNAYRYVHYDWGQGTQVTVSS", "polyreactivity (PSR sort gate)": "high polyreactivity"},
      {"sequence": "QVQLEESGGGLVQAGGSLRLSSAASGFTFAFYAMGWYRQAPGKERELVAAISRRGGSTTYADSVKGRFTISRDNAKNTVYLQMNSLKPEDTAVYYCNAVSTRNPGPDYYYWGQGTQVNVSS", "polyreactivity (PSR sort gate)": "high polyreactivity"},
      {"sequence": "QVQLEESGGGLVQAGGSLRLSYAASGSIYSYYAMGWYRQAPGKERELVAAISRSGTSTYYADSVKGRFTISRDNAKNTVYLQMNSLKPEDTAVYYFGYYYGGDYWGQGTQVTVSS", "polyreactivity (PSR sort gate)": "high polyreactivity"},
      {"sequence": "QVQLEESGGGLVQAGGSLRLTCAASGLTSRNYAMGWYRHAPRKARELVAAISKSGSRTYYADSVKGRFTISRDNAKNTVYLQMNSLKPEDTAVYYCATDYLDGTSYDYWGQGTQVTVSS", "polyreactivity (PSR sort gate)": "high polyreactivity"},
      {"sequence": "QVQLEESGGGLVQAGGSLRLTCAASGRIFTPYAMGWYRQAPGKQTELVADIRDGSTYYADSVKGRFTISRDNAKNTVYLQMNSLKPEDTAVYYSRYYIWVWWSGAYDYWGQGTQVTVSS", "polyreactivity (PSR sort gate)": "low polyreactivity"},
      {"sequence": "QVQLEESGGGLVQAGGSLRLTCAASGRNFTYYAMGWSIQAPGNEREIVAAISSSGGSTSYADSVKGRFTISRDNAKNTVYLQMNSLKPEDTAVYYCAAVTRDYGSRSGLDYWGQGTQVTVSS", "polyreactivity (PSR sort gate)": "high polyreactivity"},
      {"sequence": "QVQLEESGGGLVQAGGSLSLSCAASGSTFDNYAMGWYRKAPGKERELVADITWSGGSTYYADSVKGRFTISRDNAQNSVYLQMNSLKAEDTAVYYCNTAGYYTKYDYWGQGTQVTVSS", "polyreactivity (PSR sort gate)": "low polyreactivity"},
      {"sequence": "QVQLEESGGGLVQAGVSLRLSCAASGSTFSLYAMGWYRPAPGKERELVAAISSGGRTNYADSVKGRFTISRDNAKKTVYLQMNSLKPEDTAVYYCAARIQWPTWSLYYYWGQGTQVTVSS", "polyreactivity (PSR sort gate)": "high polyreactivity"},
      {"sequence": "QVQLEESGGGLVQEGGSLRLSCADSGFTLWLNAMGWYRQAPGKERELVAAITTSDDGTYYADSVKGRFTISRDNAKNSVYLQMNSMKPEDTAVYYCAADYYSVLYDYWVQGTQVTVSS", "polyreactivity (PSR sort gate)": "low polyreactivity"},
      {"sequence": "QVQLEESGGGLVQGGGSLRLSCAASGSNFQDNAMGWYRQAPGKERELVAAITGRDASTYYADSVKGRFTISRDNAKNTVYLQLNCLKPEDTAVDYCYWGQGTQVTVSS", "polyreactivity (PSR sort gate)": "low polyreactivity"},
      {"sequence": "QVQLEESGGRLVQAGGSLRLSCAASGRTFGPYGMGWYRQAPGKESELDAAINGNGDSTYYADSVKGRFTISRDNAKNTVYLQMNSLKPEDTAVYYCASEGWPDYTSRLYDYWGQGTQVTVSS", "polyreactivity (PSR sort gate)": "low polyreactivity"},
      {"sequence": "QVQLEESGGRLVQAGGSLRLSCAASGSIFALYAMGWYRQAPGKERELVAAIDWSDGGTYYADSVKGRFTISRDNAKNTLYLQMNSLKPEDTAVYYCNRVYSTSRITQYEFDYWGQGTQVTVSS", "polyreactivity (PSR sort gate)": "low polyreactivity"},
      {"sequence": "QVQLEESGGRLVQEGGSLRLSCAASGSTFITNAMGWYRQAPGKEWELVAAITYSTGGTYYEDSVKGRFTISRDNAKNTVYLQMYSLKPEDTAVYYCAALLYFFLYDYWGQGTQVTVSS", "polyreactivity (PSR sort gate)": "low polyreactivity"}
    ]}
  ]
}
